Patent US7592168B2, “Cephalosporin C acylase mutant and method for preparing 7-ACA using same” (Sandoz AG, priority 2003, dated 2009)

System: [H][C@]12SCC(COC(C)=O)=C(C(=O)O)N1C(=O)[C@H]2NC(=O)CCC[C@@H](N)C(=O)O
Assay: CPC hydrolysis kinetics (Lineweaver-Burk plot), fivefold mutant
Type: biochemical, Pseudomonas sp. SE83
Details: other: substrate CPC, purified enzyme, 0.1 M Tris-HCl pH 8.0, 37° C.
Experimental: The enzyme activity of CPC acylase mutant to CPC was measured according to the method described by Park et al. with minor modifications as follows (Park, et al., Kor. J. Appl. Microbiol. Biotechnol. 23: 559-564, 1995). A substrate solution was prepared by dissolving CPC (purity 74.2%; CJ Corp., Korea) in 0.1 M Tris-HCl buffer solution (pH 8.0) at a concentration of 20 mg/ml and adjusting pH to 8 with 1 N NaOH. 20 μl of the CPC solution was mixed with 20 μl of the crude enzyme solution prepared above and the reaction mixture was incubated at 37° C. for 5 min. After the reaction, the mixture (200 μl) of 50 mM NaOH and 20% glacial acetic acid (1:2) was added thereto to stop the reaction. 200 μl of the supernatant recovered from the reaction mixture by centrifugation was mixed with 40 μl of 0.5% (w/v) PDAB (p-dimethylaminobenzaldehyde; Sigma, USA) dissolved in a methanol and the reaction mixture was incubated at 37° C. for 10 min. After the reaction, the absorbance of reaction mixture was measured at 415 nm and quantified by comparing with a calibration curve of standard material. […] Meanwhile, the specific activity of CPC acylase mutant for CPC was determined by measuring the amount of protein remaining in the enzyme solution according to the method described by Bradford (Bradford, M., Anal. Biochem. 72: 248-254, 1976) and representing it as an active unit corresponding to 1 mg of protein. […]

Substance: Pseudomonas sp. SE83 CPC acylase AcyII fivefold mutant F169αY/M31βL/F58βM/H70βS/I176βV (mI176) (Pseudomonas sp. SE83; F170Y/F297M/H309S/I415V/M270L)
- Km: 8 mM
